Assay results from patent US8367060B2, “Pharmaceutical composition containing arazyme for the prevention of liver dysfunction” (Insect Biotech Co., Ltd., priority 2006, dated 2013).
“Also recorded” adds a separate entry of the source.

How the values were obtained:
[1] = system: P-smad3; experiment: Immunohistochemical observation of P-smad3 expression in liver cells; format: in vivo, mice; settings: for P-smad3 immune response (immunohistochemistry): 100 mg/kg oral before CCl4, 100 mg/kg
[2] = system: SMP30; experiment: Expression of SMP30 in liver cells by immunoblotting; format: in vivo; settings: wild type mice; 100 mg/kg oral before CCl4; compared with CCl4 only (G2)
Experimental: (§1) Wild type mice and SMP30 knock-out mice were divided, by 5 of each, into negative control groups (G1, G5), positive control groups (G2, G6), two of experimental group 1 (G3, G7) and two of experimental group 2 (G4, G8) (Table 1). Intraperitoneal administration of olive oil was performed once to negative control mice (G1, G5), while intraperitoneal administration of CCl4 (0.4 ml/kg) was performed once to positive control mice (G2, G6). In the meantime, 100 mg/kg of vitamin C dissolved in tap water was orally administered to experimental group 1 mice (G3, G7) one day before the intraperitoneal administration of CCl4 (0.4 ml/kg). 100 mg/kg of arazyme dissolved in tap water was orally administered to experimental group 2 mice (G4, G8) one day before the intraperitoneal administration of CCl4 (0.4 ml/kg). 24 hours after the administration of CCl4, autopsy was performed in every mouse and samples were taken from each mouse for histopathological test.
(§2) The expression of SMP30 in liver cells was investigated by immunoblotting. First, the liver tissues frozen at −70° C. were homogenized in RIPA buffer containing 0.1 mM sodium orthovandate (Na3VO4) and protease inhibitor cocktail tablet (Roche, Mannheim, Germany). […] Protein concentration was measured by Bradford method and each protein sample proceeded onto 10% SDS-polyacrylamide gel at the concentration of 80 µg/well, followed by electrophoresis. […]

[3] = system: SMP30; experiment: Immunohistochemical observation of SMP30 in liver cells; format: in vivo; settings: wild type mice, 100 mg/kg oral before CCl4, compared with CCl4 alone
Experimental: as §1
To observe SMP30 in liver cells immunohistochemically, paraffin embedded tissues fixed with formalin were cut into 4 μm thick sections, followed by deparaffinization. To inhibit the activity of endogenous peroxidase, the sections were treated in 3% H2O2 for 30 minutes and washed with 0.01 M PBS. To increase antigen expression of the tissues, the sections were treated with 0.01 M citrate buffer, followed by heat treatment using microwave. […]

[4] = system: rats; experiment: Acute toxicity test of arazyme, single oral administration; format: in vivo, Wistar rats; settings: female rats, oral 1250, 2500 and 5000 mg/kg once
Experimental: The following experiments were performed to see if arazyme has acute toxicity in rats.
9-week old SPF (specific pathogen-free) Wistar line rats (Orient, Co., Seoul, Korea) were raised in an animal facility (4 groups, 4 rats per group) where temperature was regulated to 22±3° C., humidity was adjusted to 55±10% and light was also regulated to 12L/12D. The rats were quarantined and adapted for one week before being used. During the whole experiment period, the rats were raised in polycarbonate cages [240 W×390 L×175 H (mm)] by up to 5 per cage. Skin mark using an oil magic pen and individual identification card were used for distinguishment. Feed for laboratory animals (PMI Nutrition International, USA) was provided at any time after being sterilized. Tap water was provided using a water bottle at any time after being purified by a carbon filter.
Arazyme of the invention was dissolved in distilled water for injection at the concentrations of 0, 1250, 2500 and 5000 mg/kg, and 10 ml/kg of each arazyme solution was orally administered once to rats using zonde. After one week-adaptation, the rats were divided into four groups. Different concentrations of arazyme were administered to rats at 10 weeks, and general symptoms were checked. To evaluate toxicity of arazyme to organs, autopsy was performed 24 hours after the administration.
After oral-administration of arazyme to female rats, any symptom according to the administration was investigated and behavior, appearance and biological functions of rats were also observed to evaluate toxicity.

[5] = system: P-smad3; experiment: Expression of P-smad3 in liver cells by immunoblotting; format: in vivo; settings: SMP30 knock-out mice; compared with CCl4 alone (G6)
Experimental: as §1, §2

[6] = system: liver cells; experiment: Histopathological observation on liver cells (H&E) in CCl4-induced acute liver injury; format: in vivo, mice; settings: for necrosis in liver cells: 100 mg/kg oral one day before CCl4 0.4 ml/kg i.p., autopsy 24 hours after CCl4
Source text: In the present invention, male wild type C57BL/6(WT) at 12 weeks and SMP30 knock-out C57BL/6(KO) mice were used to induce liver injury by CCl4 and then the relation of SMP30 with arazyme was investigated. 10 male and 20 female SMP30 knock-out C57BL/6 mice were distributed from Tokyo Metropolitan Institute of Gerontology, which were then raised in the animal laboratory at Department of Pathology, College of Veterinary Medicine, Kyungpook National University, Korea. Among F1 mice generated by breeding, knock-out mice were selected by tail DNA genotyping by PCR.
Wild type mice were quarantined and adapted for 7 days in the animal laboratory. During the adaptation, every symptom was checked and only healthy animals were selected. Both wild type and SMP30 knock-out mice were 12 weeks old, excluding the difference in age.
Rats were adapted and raised in an animal facility where temperature was regulated to 22±3° C., humidity was adjusted to 55±10% and light was also regulated to 12L/12D (08:00 lights on, 20:00 lights out). The environmental conditions were checked regularly (every three months). After environmental evaluation, no changes in important conditions were recognized. During the whole experiment period, rats were raised in polycarbonate cages [240 W×390 L×175 H (mm)] by up to 5 per cage. Skin mark using an oil magic pen and individual identification card were used for distinguishment. Feed for laboratory animals (PMI Nutrition International, 505 North 4th Street Richmond, in 47374, USA) was provided at any time after being sterilized by irradiation (13.2 kGy). Tap water was provided using a water bottle at any time after being purified by a carbon filter. Carbon tetrachloride was diluted in olive oil at the concentration of 0.4 ml/kg and administered to […] once to induce liver injury. 24 hours after the administration, autopsy was performed.
as §1, with “24 hours after the administration of CCl4, autopsy was performed in every mouse and samples were taken from each mouse for histopathological test.” left out

[7] = autopsy 24 hours after administration

B1: arazyme: novel protease produced by Aranicola proteolyticus HY-3 (KCTC 0268BP); 51.5 kDa monomer; polypeptide sequence SEQ ID NO: 1 (protein, listed as Aranicola proteolyticus)
chain: MQSTKKAIEITESSLAAASSAYNAVDDLLHYHERGNGIQVNGKDSFSTEQAGLFITRENQTWNGYKVFGQPVKLTFSFPDYKFSSTNVAGDTGLSKFSAEQQQQAKLSLQSWSDVANITFTEVGAGQKANITFGNYSQDRPGHYDYDTQAYAFLPNTIYQGQNLGGQTWYNVNQSNVKHPASEDYGRQTFTHEIGHALGLSHPGDYNAGEGNPTYRDASYAEDTREFSLMSYWSETNTGGDNGGHYAAAPLLDDISAIQHLYGANQTTRTGDTVYGFNSNTGRDFLSTTSNPQKVIFAAWDAGGNDTFDFSGYTANQRINLNEKSFSDVGGLKGNVSIAAGVTIENAIGGSGNDVIVGNAANNVLKGGAGNDVLFGGGGADELWGGAGKDTFVFSAVSDSAPGASDWIKDFQKGIDKIDLSFFNQGAQGGDQIHFVDHFSGAAGEALLSYNASNNVSDLALNIGGHQAPDILVKIVGQVDVATDFIV
modifications: BINDING (192)..(192) Zn binding site
P-smad3 expression, arazyme groups compared with vitamin C groups ([1]; G4, G8 versus G3, G7, wild type and SMP30 knock-out mice): lower | P-smad3 immune response (immunohistochemistry) ([1]; SMP30 knock-out mice, G6, G7 compared with G8): strongly detected in the groups treated with CCl4 alone or together with vitamin C (G6, G7), compared with the group (G8) treated with arazyme | P-smad3 immune response (immunohistochemistry) ([1]; wild type mice, compared with CCl4 only (G2)): strong immune response against P-smad3 was detected in group 2 (G2) treated with CCl4 only, compared with the groups (G3, G4) treated with vitamin C and arazyme; also recorded: strongly observed in CCl4 treated group (G2), compared with the groups treated with vitamin C and arazyme (G3, G4) | SMP30 expression (immunoblotting) [2]: high | SMP30 expression (immunohistochemistry) [3]: higher; also recorded: more strongly expressed | appearance (hair coat, periocular region, ears, genitalia, limbs, tail) [4]: no changes | biological functions (respiration, salivation, feces, emesis) [4]: no abnormal symptoms were found | symptoms in relation to motion, walking, temper and convulsions [4]: no specific symptoms | autopsy with naked eyes, organs [4, 7]: did not cause any abnormal symptom or disorder in every organ | microscopic observation of organs (liver, heart, lung, spleen) [4, 7]: No pathological changes were observed | autopsy with naked eyes, organs ([4]; autopsy 24 hours after administration, listed as Arazyme): no abnormal symptoms were observed | P-smad3 expression (immunoblotting) [5]: inhibited | necrosis in liver cells ([6]; SMP30 knock-out C57BL/6 mice): significantly inhibited | injury in liver cells around central vein region ([6]; arazyme treated group, CCl4 liver injury): only weak injury | necrosis in liver cells ([6]; wild type C57BL/6 mice): significantly inhibited | apoptosis of liver cells, histological observation ([6]; wild type and SMP30 knock-out mice with acute liver injury): inhibition of apoptosis of liver cells was observed
